# B1: p48 SIP kinase: novel protein kinase isolated from tobacco, activated by salicylic acid; Sequence I.D. No. 2 (protein)
# chain: MDGSGQQTDTMMSDAGAEQPPTAPQPVAGMDNIPATLSHGGRFIQYNIFGNIFEVTAKYKPPILPIGKGAYGIVCSALNSETIENVAIKKIANAFDNKIDAKRTLREIKLLRHMDHENIVAIRDIIPPPQREAFNDVYIAYELMDTDLHQIIRSNQGLSEEHCQYFLYQILRGLKYIHSANVLHRDLKPSNLLLNANCDLKICDFGLARVTSETDFMTEYVVTRWYRPPELLLNSSDYTAAIDVWSVGCIFMELMDRKPLFPGRDHVHQLRLIMELIGTPSEAEMEFLNENAKRYIRQLPLYRRQSFTEKFPHVHPTAIDLVEKMLTFDPRRRITVEGALAHPYLNSLHDISDEPICMTPFSFDFEQHALTEEQMKELIYRESLAFNPEYQHM
# modifications: phosphorylated on tyrosine residue(s); serine/threonine phosphorylation also required for activity; positions not given
# Columns and labels:
# [1] = system: MBP; experiment: Basal phosphorylation activity of recombinant SIP kinase produced in E. coli; assay type: biochemical; conditions: recombinant protein from E. coli
# Source text: A tobacco clone that encodes an exemplary SIP kinase of the invention is described in detail herein. The nucleotide sequence of a cDNA encoding tobacco SIP kinase is set forth below as Sequence I.D. No. 1. It is believed that Sequence I.D. No. 1 constitutes a full-length SIP kinase-encoding clone as it contains a suitable methionine for initiation of translation.
# Optionally, transgenic plants would be created containing mutations in the region encoding the active site of SIP kinase. This embodiment is preferred over the use of anti-sense constructs due to the very high homology between MAP kinases. For example, a mutated p48 SIP kinase with a Lys to Arg change in the kinase subdomain II has been made, and could be introduced into wild tobacco plants. […] Since the mutant p48 kinase would still serve as the substrate for upstream MAP kinase kinase and physically compete with the wild-type p48 SIP kinase, but would not transduce signal to downstream components, it may be possible to specifically block the pathway without affecting other MAP kinase cascades.
# [2] = system: MBP; experiment: Kinase activity assay during purification of p48 SIP kinase (MBP substrate); assay type: biochemical
# Method: All purification procedures were carried out in a cold room or in a 4° C. chamber. Protein extract from about 200 grams of SA-treated cells was first fractionated by (NH4)2 SO4 precipitation. Saturated ammonium sulfate solution was slowly added to total protein extract to 30% of final concentration. After slowly stirring for 30 minutes, the precipitate was collected by centrifugation at 23,000×gfor 10 minutes. The pellets were then dissolved in a total of 30 mL of buffer A (25 mM Tris, pH 7.5, 1 mM EGTA, 10 mM β-glycerolphosphate, 0.1 mM Na3 VO4, 1 mM DTT, 5% glycerol) plus 1 mM phenylmethylsulfonyl fluoride, 5 μg/mL each of antipain, aprotinin, and leupeptin. […]
# Unless specifically indicated, assays were performed at room temperature for 20 minutes in a final volume of 15 μl containing 0.5 mg/mL of MBP, 50 μM of γ-^32 P-ATP (about 3000-6000 cpm/pmole), 25 mM Tris pH 7.5, 5 mM MgCl2, 1 mM EGTA, 1 mM DTT, and enzyme. […] After washing with 150 mM H3 PO4 extensively, the phospho-protein was eluted with 0.4 mL of 1 N NaOH, and the radioactivity was determined by liquid scintillation counting. Total cpm in the reaction mixture was also determined in order to calculate the specific activity of the enzyme preparation. […]
# [3] = molecular target: T1, p48 SIP kinase (Nicotiana tabacum, UniProt A0A1S3Z5Y0); experiment: Kinetic properties, substrates, cofactors and pH dependence of p48 SIP kinase (in-solution kinase assay); assay type: biochemical, tobacco; conditions: pH of 5.5 or 10
# T1 construct: endogenous in cells; host or cells: SA-treated tobacco suspension culture cells (purified through the poly-L-lysine agarose step)
# T1 sequence (A0A1S3Z5Y0 whole entry): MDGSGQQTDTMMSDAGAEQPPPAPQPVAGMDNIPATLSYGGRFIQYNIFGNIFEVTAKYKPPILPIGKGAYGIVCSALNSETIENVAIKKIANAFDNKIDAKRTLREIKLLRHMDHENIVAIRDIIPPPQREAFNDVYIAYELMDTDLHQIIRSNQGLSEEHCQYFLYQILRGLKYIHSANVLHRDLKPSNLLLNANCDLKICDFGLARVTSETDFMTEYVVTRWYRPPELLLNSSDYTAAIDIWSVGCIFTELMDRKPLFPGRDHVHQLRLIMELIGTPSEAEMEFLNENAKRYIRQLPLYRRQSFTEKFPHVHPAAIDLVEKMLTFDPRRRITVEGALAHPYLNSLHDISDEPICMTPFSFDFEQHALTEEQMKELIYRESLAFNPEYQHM
# Method: FIGS. 10A and 10B show a pair of graphs illustrating the effect of pH (FIG. 10A), Mg^2+ and Mn^2+ (FIG. 10B) on p48 SIP kinase activity. Approximately 0.5 unit of partially purified enzyme was used in each test. Buffers used for measuring the effect of pH were 50 mM 2-[N-morpholino]ethanesulfonic acid (Mes, pH 5.0-8.0, .circle-solid.), 50 mM Tris (pH 6.0-9.5, .tangle-solidup.), and 50 mM 3-[cyclohexylamino]-1-propanesulfonic acid (Caps, pH 9.0-12.0, .box-solid.). For testing the effects of Mg^2+ (.circle-solid.), and Mn^2+ (.tangle-solidup.), buffer B from the last purification step was first exchanged to Mg^2+ -free buffer using a desalting column. Mg^2+ was not added in reactions for testing the effect of Mn^2+.
# FIG. 11 is a graph depicting the protein substrate preference of the p48 SIP kinase. About 0.5 unit of partially purified enzyme was used in each reaction. The assay conditions were as described below in Example 1, except various concentrations of MBP (.circle-solid.), histone (.tangle-solidup.), and casein (.box-solid.) were used.
# Unless specifically indicated, assays were performed at room temperature for 20 minutes in a final volume of 15 μl containing 0.5 mg/mL of MBP, 50 μM of γ-^32 P-ATP (about 3000-6000 cpm/pmole), 25 mM Tris pH 7.5, 5 mM MgCl2, 1 mM EGTA, 1 mM DTT, and enzyme. The reaction was terminated by the addition of equal volume of 150 mM H3 PO4. Twenty μL of the mixture was spotted onto an 8-well phosphocellulose filter strip (Pierce, Ill.). After washing with 150 mM H3 PO4 extensively, the phospho-protein was eluted with 0.4 mL of 1 N NaOH, and the radioactivity was determined by liquid scintillation counting. Total cpm in the reaction mixture was also determined in order to calculate the specific activity of the enzyme preparation. One unit of p48 SIP kinase was defined as the amount of enzyme that will catalyze the transfer of 1 pmole of phosphate from ATP to MBP in 1 minute.
molecule,measurement,setting,value
B1,phosphorylation of MBP / basal phosphorylation activity,[1],phosphorylates MBP
same,specific activity,[2]; Superdex 200 HR 10/30 fraction,339600.0 pmol/min/mg
same,specific activity,[2]; final purified enzyme,340000 pmol/min/mg
same,retained kinase activity,[3],more than 50%
